# Article PMC314469, “Protein Interaction Networks by Proteome Peptide Scanning” (PLoS Biology, 2004)
# T1: Abp1 SH3 (ABP1_YEAST), P15891
# T1 chain: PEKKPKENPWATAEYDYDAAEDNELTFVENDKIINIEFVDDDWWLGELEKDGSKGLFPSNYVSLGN
# Molecular target: T1, Abp1 SH3 (ABP1_YEAST), P15891
# Test: SPOT array
row,Binder,"normalised SPOT signal, Boehringer light units (BLU); mean over the file's lines of this peptide"
1,FVFFKSLPDLPKP [YML104C 41-53],196
2,FWKSLYPELTPYKP [YKR051W 189-202],97.4
3,GDEGNRNITAPPRP [YHR031C 65-78],77.6
4,GAGILAMPYAFKP [YER119C 18-30],62.2
5,FKRSIGASHAPLKP [YER161C 100-113],145
6,FLNDVEEEESPVKP [YLL021W 576-589],123
7,FNTPVDSPSVSRP [YER040W 639-651],94.4
8,FLHGNTNAPTPLRP [YPR099C 84-97],63
9,GSNATADVSPPKKP [YDL118W 75-88],67.3
10,GDAFQDVEGKPLRP [YOR229W 116-129],51.6
11,FQVVLDTPQGLKP [YFR037C 187-199],103
12,FPDWSMGPNSAKP [YPL089C 527-539],238
13,FSDKNTIPPNEKP [YPR022C 372-384],147
14,FLSIHFPTDYPFKP [YBR082C 52-65],95.8
15,FSLMFNTSRLPGKP [YML042W 214-227],2180
16,GALLDEAPEHPRP [YNL314W 80-92],82.3
17,FTDNSLLPSLIKP [YOR317W 178-190],217
18,FQFLNNTPKMLKP [YLR190W 87-99],246
19,FFPNVNSPSVNKP [YNR045W 370-382],101
20,FEKGPRMPSRGRP [YPR171W 143-155],2280
21,GATFAVKEFRPRKP [YOR267C 238-251],1130
22,FIDPSLRPIIVKP [YPR056W 253-265],10.5
23,FTYAYVSPTKLKP [YGL140C 277-289],170
24,FEEPEDFLPPPPKP [YLR285W 14-27],55.3
25,FNVPSQKPLNSKP [YHR103W 279-291],955
26,GATTLKPATLPAKP [YIL038C 384-397],160

# The remaining lines, values ahead:
row,"normalised SPOT signal, Boehringer light units (BLU); mean over the file's lines of this peptide",Binder
1,316,FLDVLKIKPLPYKP [YER093C 581-594]
2,230,FIQQMMDPSKAKP [YPL082C 1249-1261]
3,125,FVYPFIRRYTPLKP [YKR093W 407-420]
4,67.2,FSGVTNQPSPIRP [YER129W 662-674]
5,100,FNVQDVRPDLFRP [YDR080W 297-309]
6,168,FDSQFSAPFNGRP [YBL014C 791-803]
7,79.6,GAGVLAMPFAFKP [YBL089W 68-80]
8,20,FYILDKFPLEIRP [YLL018C 442-454]
9,92,FSHTGLTSFTPERP [YOL138C 597-610]
10,63,FGLEQISPAQKKP [YDL217C 6-18]
11,83.2,FDYIVTREFRPTKP [YOR131C 125-138]
12,76.6,FINVSHSPLVPKP [YHR034C 60-72]
13,4290,FTNLQAKPLVGKP [YAR002W 429-441]
14,526,FEMVTEVPIPRRP [YGR156W 132-144]
15,2270,FKVMVANPRKSKP [YKL189W 299-311]
16,773,FREPERKTSVPVRP [YIL156W 221-234]
17,48.4,FIDDLKQPKYVRP [YPL070W 96-108]

row,"normalised SPOT signal, Boehringer light units (BLU); mean over the file's lines of this peptide",Binder
1,173,FDKKNETPRKRKP [YBL046W 314-326]
2,284,FDIVFPAPKGKRP [YBR034C 258-270]
3,4150,FNGNSRLMMIPKKP [YDL073W 594-607]
4,170,FSEKPEETPNPLKP [YKL077W 64-77]
5,158,FSAAEIWPTKGKP [YMR228W 229-241]
6,28.8,FQLIYFFPDLIKP [YOL107W 265-277]
7,353,FQLPTRLPAFERP [YDL150W 307-319]
8,478,FSGSLKLPNSPRP [YGL135W 49-61]
9,97,FYYWLGVPSFQRP [YHR171W 136-148]
10,106,FRGDYGNNISPERP [YAL017W 277-290]
11,831,FNKTRFVPGSNKP [YPL272C 132-144]
12,90.9,GASTIPASNNPSKP [YIL130W 103-116]
13,143,FSVLIYESLDPDRP [YIR032C 164-177]
14,35,FPPNEAPMLSPQRP [YLR006C 159-172]
15,186,FFQLPPVSKDPNRP [YML061C 379-392]
16,411,FKRAGLIPIRLRP [YDR072C 45-57]
